The data set deals with the molecule itself. Put plainly: native gel or EMSA. For orientation: A gel shift assay detects complexes by their altered migration in electrophoresis.

Where “and” joins values, the source holds several entries; their conditions need not be identical. Equal entries are not always repeated.

B1: Stat5a (wild type), from Epo-stimulated 293T cells (natural protein)
chain: MAGWIQAQQLQGDALRQMQVLYGQHFPIEVRHYLAQWIESQPWDAIDLDNPQDRGQATQLLEGLVQELQKKAEHQVGEDGFLLKIKLGHYATQLQNTYDRCPMELVRCIRHILYNEQRLVREANNCSSPAGVLVDAMSQKHLQINQRFEELRLITQDTENELKKLQQTQEYFIIQYQESLRIQAQFAQLGQLNPQERMSRETALQQKQVSLETWLQREAQTLQQYRVELAEKHQKTLQLLRKQQTIILDDELIQWKRRQQLAGNGGPPEGSLDVLQSWCEKLAEIIWQNRQQIRRAEHLCQQLPIPGPVEEMLAEVNATITDIISALVTSTFIIEKQPPQVLKTQTKFAATVRLLVGGKLNVHMNPPQVKATIISEQQAKSLLKNENTRNECSGEILNNCCVMEYHQATGTLSAHFRNMSLKRIKRADRRGAESVTEEKFTVLFESQFSVGSNELVFQVKTLSLPVVVIVHGSQDHNATATVLWDNAFAEPGRVPFAVPDKVLWPQLCEALNMKFKAEVQSNRGLTKENLVFLAQKLFNISSNHLEDYNSMSVSWSQFNRENLPGWNYTFWQWFDGVMEVLKKHHKPHWNDGAILGFVNKQQAHDLLINKPDGTFLLRFSDSEIGGITIAWKFDSPDRNLWNLKPFTTRDFSIRSLADRLGDLNYLIYVFPDRPKDEVFAKYYTPVLAKAVDGYVKPQIKQVVPEFVNASTDAGASATYMDQAPSPVVCPQPHYNMYPPNPDPVLDQDGEFDLDESMDVARHVEELLRRPMDSLDARLSPPAGLFTSARSSLS
As for B1, the “stoichiometry N” value was 4 and 2.

One may read the stoichiometry N as a count of units in the complex or per binding partner.

For the origin of these results see PMC2976847 (Frontiers in bioscience : a journal and virtual library, 2008).
